In paper doi:10.1101/2024.09.25.614871v2:

What was measured:
[1] = substrate: CC(C)(COP(=O)(O)OP(=O)(O)OC[C@H]1O[C@@H](n2cnc3c(N)ncnc32)[C@H](O)[C@@H]1OP(=O)(O)O)[C@@H](O)C(=O)NCCC(=O)NCCSC(=O)C[C@H](O)C(=O)O; test: purified protein; assay type: biochemical, Sus scrofa; settings: pH 7.5, 37 °C, 100 mM Tris
[2] = substrate: C=C(CC(=O)O)C(=O)O; test: PK/LDH-coupled NADH consumption; assay type: biochemical, Homo sapiens; settings: 0.1 mM CoA, 7 mM MgCl2, pH 7.5, 30 °C
[3] = substrate: O=C(O)C[C@H](O)C(=O)O; test: PK/LDH-coupled NADH consumption; assay type: biochemical, Homo sapiens; settings: 0.1 mM CoA, 7 mM MgCl2, pH 7.5, 30 °C

B1: citrate synthase (CS) (Sus scrofa) (protein)
chain: ASSTNLKDILADLIPKEQARIKTFRQQHGNTVVGQITVDMMYGGMRGMKGLVYETSVLDPDEGIRFRGYSIPECQKMLPKAKGGEEPLPEGLFWLLVTGQIPTEEQVSWLSKEWAKRAALPSHVVTMLDNFPTNLHPMSQLSAAITALNSESNFARAYAEGIHRTKYWELIYEDCMDLIAKLPCVAAKIYRNLYREGSSIGAIDSKLDWSHNFTNMLGYTDAQFTELMRLYLTIHSDHEGGNVSAHTSHLVGSALSDPYLSFAAAMNGLAGPLHGLANQEVLVWLTQLQKEVGKDVSDEKLRDYIWNTLNSGRVVPGYGHAVLRKTDPRYTCQREFALKHLPHDPMFKLVAQLYKIVPNVLLEQGKAKNPWPNVDAHSGVLLQYYGMTEMNYYTVLFGVSRALGVLAQLIWSRALGFPLERPKSMSTDGLIKLVDSK
B1 was tested, and the Km [1] was 106 µM.

B2: SUCL (ADP-forming), SUCLG1:SUCLA2 complex (Homo sapiens) (protein)
chain 1: not shown
chain 2: LSLHEYMSMELLQEAGVSVPKGYVAKSPDEAYAIAKKLGSKDVVIKAQVLAGGRGKGTFESGLKGGVKIVFSPEEAKAVSSQMIGKKLFTKQTGEKGRICNQVLVCERKYPRREYYFAITMERSFQGPVLIGSSHGGVNIEDVAAESPEAIIKEPIDIEEGIKKEQALQLAQKMGFPPNIVESAAENMVKLYSLFLKYDATMIEINPMVEDSDGAVLCMDAKINFDSNSAYRQKKIFDLQDWTQEDERDKDAAKANLNYIGLDGNIGCLVNGAGLAMATMDIIKLHGGTPANFLDVGGGATVHQVTEAFKLITSDKKVLAILVNIFGGIMRCDVIAQGIVMAVKDLEIKIPVVVRLQGTRVDDAKALIADSGLKILACDDLDEAARMVVKLSEIVTLAKQAHVDVKFQLPI
In the case of B2, the Km ([2]; 0.6 mM ATP) is reported as 19100 ± 2500 µM, the kcat ([2]; 0.6 mM ATP) is reported as 0.65 ± 0.08 s⁻¹ and the Km ([3]; 0.6 mM ATP) is reported as 21900 ± 5800 µM. It also gave a kcat ([3]; 0.6 mM ATP) of 0.06 ± 0.01 s⁻¹.

B3: SUCL (GDP-forming), SUCLG1:SUCLG2 complex (Homo sapiens) (protein)
chain 1: not shown
chain 2: LNLQEYQSKKLMSDNGVRVQRFFVADTANEALEAAKRLNAKEIVLKAQILAGGRGKGVFNSGLKGGVHLTKDPNVVGQLAKQMIGYNLATKQTPKEGVKVNKVMVAEALDISRETYLAILMDRSCNGPVLVGSPQGGVDIEEVAASNPELIFKEQIDIFEGIKDSQAQRMAENLGFVGPLKSQAADQITKLYNLFLKIDATQVEVNPFGETPEGQVVCFDAKINFDDNAEFRQKDIFAMDDKSENEPIENEAAKYDLKYIGLDGNIACFVNGAGLAMATCDIIFLNGGKPANFLDLGGGVKEAQVYQAFKLLTADPKVEAILVNIFGGIVNCAIIANGITKACRELELKVPLVVRLEGTNVQEAQKILNNSGLPITSAIDLED
B3 gave a Km ([2]; 0.6 mM GTP) of 1500 ± 200 µM, a kcat ([2]; 0.6 mM GTP) of 5.3 ± 0.2 s⁻¹ and a Km ([3]; 0.6 mM GTP) of 1900 ± 300 µM. The kcat ([3]; 0.6 mM GTP) was 0.18 ± 0.02 s⁻¹.
